{
  "source": "patent US20190002571A1",
  "about": "“INHIBITION OF CCL5 LIGAND BINDING TO CCR5 RECEPTOR AND ALTERATION OF CCR5/CCL5 AXIS SIGNALING IN INFLAMMATION, CANCER, AUTOIMMUNE, AND OTHER CONDITIONS” (CytoDyn Inc., priority 2015, published 2019)",
  "key": {"[1]": {"biological_target": "T1, human CCR5 (Homo sapiens, UniProt P51681)", "T1 sequence (P51681 whole entry)": "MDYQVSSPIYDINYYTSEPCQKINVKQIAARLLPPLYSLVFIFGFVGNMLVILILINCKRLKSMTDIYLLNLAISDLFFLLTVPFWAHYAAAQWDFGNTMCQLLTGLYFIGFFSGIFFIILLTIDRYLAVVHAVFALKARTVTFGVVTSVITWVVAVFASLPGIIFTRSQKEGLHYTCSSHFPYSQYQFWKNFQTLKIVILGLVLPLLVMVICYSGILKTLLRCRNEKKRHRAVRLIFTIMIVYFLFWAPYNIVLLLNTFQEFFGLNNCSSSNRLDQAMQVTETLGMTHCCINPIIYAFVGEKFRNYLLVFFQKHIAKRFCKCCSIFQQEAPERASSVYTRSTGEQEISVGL", "assay": "Migration (chemotaxis) assay with CHO-K1-hCCR5 cells, ATPlite readout", "assay_type": "cell-based", "parameters": "Production of the full length protein was confirmed by western blot; expressed in transfected cells; host or cells: CHO-K1", "conditions": "for chemotactic response / direct induction of migration, agent alone: single agent over its concentration range (MVC 0.0045-10 μM; CCL5 0.0007-0.50 μM), FIG. 4, FIG. 5; for concentrations at which CCL5 induced migration was inhibited: constant dose of CCL5 0.005 μM", "excerpt": "This experiment was designed to investigate the role of PRO 140 on chemotaxis induced by CCL5 engagement of the CCR5 receptor on CHO-CCR5 target cells (CHO-K1 cell line).\na. Cell Lines: The CHO-K1 cell line was transfected with a human CCR5 expression plasmid and selected for expression. Production of the full length protein was confirmed by western blot. Fluorescence-activated cell sorting (FACS) analysis was used to sort for cells that expressed CCR5 on the surface and these cells were purified and expanded.\nb. Methods: Migration assays were done in Multiscreen MC plates using CHO-K1-hCCR5 cells in the upper chamber and with media and test agents in the bottom chamber. The agents tested included: PRO 140, Maraviroc (MVC), CCL5, forskolin (FSK), and an IgG4 control as single agents, and PRO 140+CCL5, and Maraviroc+CCL5 as combined agents. The effects on the Chemotaxis Index were measured over a wide concentration range of the test substance. The Chemotaxis Index was calculated as the migration of cells into the lower chamber with a test substance divided by the migration of cells into the lower chamber without the test substance or with a control substance. Migration was measured using the ATPlite assay. All assays were performed in triplicate. Data analysis was determined by the Chemotaxis Index over a wide concentration range of the test substance. Dose ranges of test agents were as follows: PRO 140 was 0.0045-10 ug/ml; MVC was 0.0045-10 μM; CCL5 was 0.0007-0.50 μM; FSK was 0.0045-10 μM; IgG4 control was 0.0045-10 μg/ml."}, "[2]": {"biological_target": "T1, human CCR5", "assay": "cAMP accumulation in primary CD4+ CCR5+ T cells (radioimmunoassay)", "assay_type": "cell-based", "parameters": "Primary CD4+ cell lines were prepared from healthy human donors and grown for 7-10 days prior to sorting for CD4+ CCR5+ T cells; endogenous in cells; host or cells: primary human CD4+ CCR5+ T cells (PHA/IL-2 expanded PBMC, FACS sorted)", "conditions": "for cAMP accumulation (stimulated): single agent with rolipram 20 uM and forskolin 10 uM; for cAMP accumulation (stimulated) / cAMP accumulation (unstimulated, basal): PRO 140 1 ug/ml, CCL5 0.1 uM; for cAMP accumulation (unstimulated, basal): single agent with rolipram 20 uM, 37° C., 10 minutes; for effect on cAMP levels as single agent: single agents, CD4+ CCR5+ T cells", "protocol": "The first set of experiments was designed to see if PRO 140 has antagonist and/or agonist activity for alternative signaling pathways known to be activated downstream of CCR5 engagement, such as G-protein mediated modulation of intracellular cyclic AMP (cAMP) or specific tyrosine kinase activation.\na. Cell Lines: Primary CD4+ cell lines were prepared from healthy human donors and grown for 7-10 days prior to sorting for CD4+ CCR5+ T cells. PBMC were stimulated with 1 ug/ml of PHA-L Sigma (2E6/well in 24 well plates). PHA lines were expanded using 30 U/ml IL-2 for 24 hours after stimulation and every other day until FACS sorting for CD4+ CCR5+ T cells (on days 7-10). FACS sorting was done using anti-human CD4-percp-Cy5.5 clone RPA-T4, Mouse IgG1k, at 25 ug/ml, with a working concentration of 0.125 ug/ml. Anti-human CCR5-PE clone NP-6G4, Mouse IgG1k, concentration 25 ug/ml, working concentration 1.25 ug/ml was used.\nb. Methods: Cell lines were assayed for cAMP levels in the absence or presence of rolipram (20 uM, a cyclic nucleotide phosphodiesterase-4 (PDF-4) inhibitor) with either no addition (basal cAMP) or in response to forskolin (FSK) (10 uM, a non-specific activator of cAMP synthesis), PRO 140 (1 ug/ml), forskolin+PRO 140, CCL5 (0.1 uM), CCL5+ forskolin, or PRO 140+ CCL5+ forskolin. Incubations (0.5E6 cells/ml) were conducted at 37° C. for 10 minutes and then terminated by addition of ice-cold 7.5% trichloroacetic acid (TCA). cAMP was quantified by radioimmunoassay. Statistical significance was determined by unpaired, one-tailed t test analysis using GraphPad prism software, version 4.0"}},
  "data": [
    {"molecule": "CCL5: C-C chemokine ligand 5, inflammatory chemokine also known as RANTES; natural CCR5 ligand [reference compound]", "values": [
      {"measurement": "chemotactic response / direct induction of migration, agent alone", "setting": "[1]", "result": "pronounced"},
      {"measurement": "cAMP accumulation (stimulated)", "setting": "[2]; FIG. 2", "result": 3800, "unit": "fmoles cAMP/0.5E6 cells"},
      {"measurement": "cAMP accumulation (unstimulated, basal)", "setting": "[2]; no forskolin, FIG. 1", "result": 60, "unit": "fmoles cAMP/0.5E6 cells"},
      {"measurement": "effect on cAMP levels as single agent", "setting": "[2]", "result": "decreased cAMP levels"}
    ]},
    {"molecule": "Maraviroc", "values": [
      {"measurement": "concentration range in which the chemotactic response was significant", "setting": "[1]; MVC alone, FIG. 4", "result": "above 0.01 μM"},
      {"measurement": "concentrations at which CCL5 induced migration was inhibited", "setting": "[1]; FIG. 5", "result": "above 0.05 μM"},
      {"measurement": "chemotactic response / direct induction of migration, agent alone", "setting": "[1]; listed as MVC", "result": "significant direct induction of migration"}
    ]},
    {"molecule": "PRO 140: a known humanized monoclonal antibody CCR5 antagonist with anti-HIV properties (antibody, chains of the INN, looked up, V domains shown) VH: EVQLVESGGGLVKPGGSLRLSCAASGYTFSNYWIGWVRQAPGKGLEWIGDIYPGGNYIRNNEKFKDKTTLSADTSKNTAYLQMNSLKTEDTAVYYCGSSFGSNYVFAWFTYWGQGTLVTVSS VL: DIVMTQSPLSLPVTPGEPASISCRSSQRLLSSYGHTYLHWYLQKPGQSPQLLIYEVSNRFSGVPDRFSGSGSGTDFTLKISRVEAEDVGVYYCSQSTHVPLTFGQGTKVEIK", "values": [
      {"measurement": "Chemotaxis Index (chemotactic response), agent alone", "setting": "[1]; FIG. 4, PRO 140 alone, concentration range 0.0045-10 μg/ml", "result": 0},
      {"measurement": "Chemotaxis Index, agent alone", "setting": "[1]; FIG. 6, PRO 140 alone, concentration range 0.0045-4.0 μg/ml", "result": "less than 3"},
      {"measurement": "concentrations at which CCL5 induced migration was inhibited", "setting": "[1]; FIG. 6", "result": "above 0.4 μg/ml"},
      {"measurement": "effect on CCL5 triggered decrease in cAMP levels", "setting": "[2]; PRO 140 combined with CCL5", "result": "diminished the effects of CCL5 on decreasing cAMP"},
      {"measurement": "cAMP accumulation (stimulated) in the presence of CCL5", "setting": "[2]; rolipram + PRO 140 1 ug/ml + CCL5 0.1 uM + forskolin 10 uM, FIG. 2", "result": 5700, "unit": "fmoles cAMP/0.5E6 cells"},
      {"measurement": "cAMP accumulation (unstimulated, basal) in the presence of CCL5", "setting": "[2]; rolipram + PRO 140 1 ug/ml + CCL5 0.1 uM, no forskolin, FIG. 1", "result": 107, "unit": "fmoles cAMP/0.5E6 cells"},
      {"measurement": "cAMP accumulation (stimulated)", "setting": "[2]; FIG. 2", "result": 6300, "unit": "fmoles cAMP/0.5E6 cells"},
      {"measurement": "cAMP accumulation (unstimulated, basal)", "setting": "[2]; no forskolin, FIG. 1", "result": 110, "unit": "fmoles cAMP/0.5E6 cells"},
      {"measurement": "effect on cAMP levels as single agent", "setting": "[2]", "result": "no effect on cAMP levels"}
    ]}
  ]
}
